Results from article PMC12384571.

Tests used:
hGHbp ECD (Homo sapiens) = hGHbp ECD (Homo sapiens) (UniProt P10912); assay: SPR; conditions: cited from earlier work
[1] = target: Human FcRn (neonatal Fc receptor for IgG) (human) (UniProt P55899); assay: ITC; 15 uM FcRn in the sample cell, titrated with 100 uM mAb from the syringe (9 injections of 3 uL); 25 °C; 1 x PBS, pH 6.0; independent fit model
Sequence of UniProt P55899 (P55899 whole entry, looked up, tested part not stated): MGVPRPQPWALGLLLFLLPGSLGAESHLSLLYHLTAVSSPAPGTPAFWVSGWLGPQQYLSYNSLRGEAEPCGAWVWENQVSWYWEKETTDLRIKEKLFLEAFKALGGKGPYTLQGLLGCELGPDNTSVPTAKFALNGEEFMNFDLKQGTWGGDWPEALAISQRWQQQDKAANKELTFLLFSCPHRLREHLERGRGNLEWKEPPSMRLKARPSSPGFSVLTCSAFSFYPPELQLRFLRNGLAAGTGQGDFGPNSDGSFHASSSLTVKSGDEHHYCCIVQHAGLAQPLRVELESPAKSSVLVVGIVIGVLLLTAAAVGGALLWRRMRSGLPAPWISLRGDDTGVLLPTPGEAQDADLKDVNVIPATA

Sequence of UniProt P10912 (P10912 19-256): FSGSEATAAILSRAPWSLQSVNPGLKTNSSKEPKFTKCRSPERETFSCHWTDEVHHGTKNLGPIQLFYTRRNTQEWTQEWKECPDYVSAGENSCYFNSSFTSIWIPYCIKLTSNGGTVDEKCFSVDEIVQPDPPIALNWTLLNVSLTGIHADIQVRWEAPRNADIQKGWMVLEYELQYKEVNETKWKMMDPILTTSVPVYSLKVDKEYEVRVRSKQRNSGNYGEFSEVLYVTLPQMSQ

Substance	Kd (hGHbp ECD (Homo sapiens)) [nM]	dH [1] [kcal/mol]
hGHwt (from UniProt P01241)	1.2	
YTE mutant IgG mAb (IgGA-YTE) (antibody)		-12
wildtype IgG mAb (IgGAwt) (antibody)		-5.5
